Data: article PMC4133371
Blank lines part the entries; values can stand above or below the molecule they belong to.

Target: endogenous E-cadherin (dog (endogenous in MDCK))
Assay: co-IP; endogenous E-cadherin collected by antibodies to its extracellular part from lysates of MDCK cells expressing DsRed, DECT, DECTSA, DECTN or DECTC; immunoblot with anti-β-catenin or anti-plakoglobin; bands quantified with NIH Image as percent of DsRed cells

Chain of endogenous E-cadherin (dog (endogenous in MDCK)) (F1PAA9 27-885): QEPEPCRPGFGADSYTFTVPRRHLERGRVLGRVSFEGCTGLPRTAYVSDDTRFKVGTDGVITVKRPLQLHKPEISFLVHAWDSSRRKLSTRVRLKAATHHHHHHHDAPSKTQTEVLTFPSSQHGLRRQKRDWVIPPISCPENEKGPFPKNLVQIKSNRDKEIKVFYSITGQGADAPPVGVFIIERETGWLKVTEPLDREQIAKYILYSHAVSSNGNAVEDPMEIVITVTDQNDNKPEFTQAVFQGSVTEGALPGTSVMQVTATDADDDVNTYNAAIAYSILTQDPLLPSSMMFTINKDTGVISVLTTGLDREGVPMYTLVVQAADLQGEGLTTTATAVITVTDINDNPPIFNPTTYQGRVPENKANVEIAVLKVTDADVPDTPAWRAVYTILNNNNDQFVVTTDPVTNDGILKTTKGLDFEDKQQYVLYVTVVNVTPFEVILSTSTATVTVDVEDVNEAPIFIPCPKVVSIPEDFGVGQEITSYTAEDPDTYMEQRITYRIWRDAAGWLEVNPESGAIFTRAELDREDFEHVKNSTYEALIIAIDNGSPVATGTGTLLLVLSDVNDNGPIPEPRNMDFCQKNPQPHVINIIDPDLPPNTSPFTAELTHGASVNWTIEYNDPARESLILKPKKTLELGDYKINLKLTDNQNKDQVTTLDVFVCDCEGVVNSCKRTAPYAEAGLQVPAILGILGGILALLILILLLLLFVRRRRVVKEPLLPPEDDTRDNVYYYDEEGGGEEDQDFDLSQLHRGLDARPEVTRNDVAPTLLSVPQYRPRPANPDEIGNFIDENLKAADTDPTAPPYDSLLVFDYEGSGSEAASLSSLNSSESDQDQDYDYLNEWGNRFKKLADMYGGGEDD

- percent co-precipitated with endogenous E-cadherin relative to DsRed cells (cells expressing DECT): 33%
- percent co-precipitated with endogenous E-cadherin relative to DsRed cells (cells expressing DECTC): 187%
- percent co-precipitated with endogenous E-cadherin relative to DsRed cells (cells expressing DECTN): 100%
- percent co-precipitated with endogenous E-cadherin relative to DsRed cells (cells expressing DsRed): 100%
Molecule: plakoglobin (natural protein)

- percent co-precipitated with endogenous E-cadherin relative to DsRed cells (cells expressing DECT): 4%
- percent co-precipitated with endogenous E-cadherin relative to DsRed cells (cells expressing DECTC): 24%
- percent co-precipitated with endogenous E-cadherin relative to DsRed cells (cells expressing DECTN): 102%
- percent co-precipitated with endogenous E-cadherin relative to DsRed cells (cells expressing DsRed): 100%
B1: β-catenin (natural protein)
chain: MATQADLMELDMAMEPDRKAAVSHWQQQSYLDSGIHSGATTTAPSLSGKGNPEEEDVDTTQVLYEWEQGFSQSFTQEQVADIDGQYAMTRAQRVRAAMFPETLDEGMQIPSTQFDAAHPTNVQRLAEPSQMLKHAVVNLINYQDDAELATRAIPELTKLLNDEDQVVVNKAAVMVHQLSKKEASRHAIMRSPQMVSAIVRTMQNTNDVETARCTAGTLHNLSHHREGLLAIFKSGGIPALVKMLGSPVDSVLFYAITTLHNLLLHQEGAKMAVRLAGGLQKMVALLNKTNVKFLAITTDCLQILAYGNQESKLIILASGGPQALVNIMRTYTYEKLLWTTSRVLKVLSVCSSNKPAIVEAGGMQALGLHLTDPSQRLVQNCLWTLRNLSDAATKQEGMEGLLGTLVQLLGSDDINVVTCAAGILSNLTCNNYKNKMMVCQVGGIEALVRTVLRAGDREDITEPAICALRHLTSRHQEAEMAQNAVRLHYGLPVVVKLLHPPSHWPLIKATVGLIRNLALCPANHAPLREQGAIPRLVQLLVRAHQDTQRRTSMGGTQQQFVEGVRMEEIVEGCTGALHILARDVHNRIVIRGLNTIPLFVQLLYSPIENIQRVAAGVLCELAQDKEAAEAIEAEGATAPLTELLHSRNEGVATYAAAVLFRMSEDKPQDYKKRLSVELTSSLFRTEPMAWNETADLGLDIGAQGEPLGYRQDDPSYRSFHSGGYGQDALGMDPMMEHEMGGHHPGADYPVDGLPDLGHAQDLMDGLPPGDSNQLAWFDTDL
